Consider one substance from article doi:10.1101/2025.04.16.649061.

Common to all, as to assay: BLI
Assay [1] addresses fXa L23 chimera with the full EGF2 domain swap (human | Hoplocephalus stephensii).
The target in assay [2] is fXa variant M13 (7 EGF2 and 6 SP mutations) (human).
Assay [3] has as its target fXa L1 loop-swap chimera (human).
For assay [4], the target named is fXa variant M7 (7 EGF2 mutations) (human).
Assay [5] deals with fXa L3 loop-swap chimera (human).
The target in assay [6] is fXa L2 loop-swap chimera (human).
Assay [7] deals with fXa L123 loop-swap chimera (human).
Assay [8] has as its target wild-type human factor Xa (human).
For assay [9], the target named is fXa L23 loop-swap chimera (human).
Assay [10] has as its target fXa SP chimera (entire HopD SP domain swapped into human fXa) (human | Hoplocephalus stephensii).
The target of another assay is M17 fXa variant (human).
The target of assay [11] is fXa L123/EGF2 chimera (M45) (human | Hoplocephalus stephensii).
Assay [12] concerns the target Hopsarin D (Hoplocephalus stephensii).

With “B-domainless human fV (from UniProt P12259 29-2224) (natural protein)”, the dissociation constant Kd in [1] worked out at 369 nM; in assay [2] it was 48 nM; in [3], 532 nM; in assay [4] it was 78 nM; in assay [5] it was 905 nM; in [6] it was 1130 nM. For the same substance, the equilibrium dissociation constant (Kd) worked out at 608 nM in assay [7]; 1380 nM in [8]; 1120 nM in [9]; 400 nM in assay [10]; 17 nM with M17 fXa variant (human); 43 nM in assay [11]. This substance came in with a dissociation constant (Kd) in [12] of 18 nM.
